Reference: US12098206B2, “PDGF receptor antibody and use thereof” (Seoul National University R&DB Foundation, priority 2018, dated 2024)
Residue numbers refer to the chain shown, from its start. Read-outs that look alike come from different tables or passages of the source.

T1: mPDGFR-β and cotinine (Mus musculus, UniProt P05622)
T1 construct: mPDGFR-β
T1 sequence (P05622 32-530): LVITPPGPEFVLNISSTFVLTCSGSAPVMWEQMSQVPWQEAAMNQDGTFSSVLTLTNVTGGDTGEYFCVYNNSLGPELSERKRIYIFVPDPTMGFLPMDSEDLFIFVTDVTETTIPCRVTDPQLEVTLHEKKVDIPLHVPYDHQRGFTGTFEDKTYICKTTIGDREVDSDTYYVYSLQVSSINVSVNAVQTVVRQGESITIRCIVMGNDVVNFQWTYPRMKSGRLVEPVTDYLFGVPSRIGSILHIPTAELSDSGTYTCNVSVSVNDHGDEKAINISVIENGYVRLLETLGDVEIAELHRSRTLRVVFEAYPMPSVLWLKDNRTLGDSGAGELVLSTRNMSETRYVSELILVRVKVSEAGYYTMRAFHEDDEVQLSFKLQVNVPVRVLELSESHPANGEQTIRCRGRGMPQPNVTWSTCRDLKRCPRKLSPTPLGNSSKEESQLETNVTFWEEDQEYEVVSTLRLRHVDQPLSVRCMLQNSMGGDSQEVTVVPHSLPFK

T2: mPDGFR-β (Mus musculus, UniProt P05622)
T2 construct: mPDGFR-β
T2 sequence (P05622 32-530): T1 sequence (P05622 32-530)

B1: PRb-CC02: anti-mPDGFR-β scFv clone (VH SEQ ID NO 23, VL SEQ ID NO 24), tested as scFv-Cκ-anti-cotinine scFv bispecific antibody (antibody, V domains shown)
VH: AVTLDESGGGLQTPGGALSLVCKASGFTFSSYGMFWVRQAPGKGLEWVAGIDTGSGTNYGSAVKGRATISRDNGQSTVRLQLNNLRAEDTGTYFCTRGYAGTIDAWGHGTEVIVSSTS
VL: LTQPSSVSANPGETVKITCSGGGGSYGWYQQKSPGSAPVTVIYYNDKRPSDIPSRFSGSKSGSTGTLTITGVQAEDEAVYFCGSYNSSDSLFGAGTTLTVL
modifications: VH of PRb-CC02; VL of PRb-CC02
B2: PRb-CC03: anti-mPDGFR-β scFv clone (VH SEQ ID NO 31, VL SEQ ID NO 32), tested as scFv-Cκ-anti-cotinine scFv bispecific antibody (antibody, V domains shown)
VH: AVTLDESGGGLQTPGGTLSLVCKASGFTFSSYAMGWVRQAPGKGLEWVAGIDTAGGTAYGPAVKGRATISRDNGQSTVRLQLNNLRAEDTATYYCTRSSYIDTWGHGTEVIVSSTS
VL: B1 VL with G23T, G24Y, S25N, Y44W, F81Y, Y85S, N86D, D89G, S90L, L91I
modifications: VH of PRb-CC03; VL of PRb-CC03
B3: PRb-CC01: anti-mPDGFR-β scFv clone (VH SEQ ID NO 15, VL SEQ ID NO 16), tested as scFv-Cκ-anti-cotinine scFv bispecific antibody (antibody, V domains shown)
VH: AVTLDESGGGLQTPGGALSLVCKGSGFTFSSYNMGWVRQAPGKGLEFVAGISAADNSTAYGAAVDGRATISRDNGQSTVRLQLNNLRAEDTATYFCIRGGGSIDAWGHGTEVIVSS
VL: LTQPSSVSANLGGTVKITCSGGGSYYGWYQQKSPGSAPVTLIYYNDKRPSDIPSRFSGSKSGSTGTLTITGVQAEDEAVYFCGAWDNSAGYAGFGAGTTLTVL
modifications: VH of PRb-CC01; VL of PRb-CC01

Tests used:
[1] = mice; conventional studies; cited from earlier work
NIH3T3 cells [2] = assay: cells; assay type: cell-based, mouse; conditions: for IC50: Mus musculus, NIH3T3, 72 h, NIH3T3 cells, 72 hours; for toxicity with the addition of mPDGF-BB: complex with cot-duo or cot-duo-cot; for toxicity with the addition of mPDGF-BB / toxicity compared to control anti-HER2 x cotinine scFv-Cκ-scFv: NIH3T3, FIG. 5; for toxicity compared to control anti-HER2 x cotinine scFv-Cκ-scFv: complex with cotinine-duocarmycin, with or without mPDGF-BB
Protocol: NIH3T3 cells were added to 50 μL of DMEM supplemented with 10% FBS and 1% penicillin/streptomycin, placed in a 96-well plate (CLS3595, Corning) and incubated overnight in 5% CO2 at 37° C. incubator. In each well containing 50 μL of cells, 50 μL of 50 anti-PDGFR-β x cotinine scFv-Cκ-scFv fusion protein (25.6 pM-2 μM) complexed with cot-duo or cot-duo-cot obtained in Experimental Example 10 was added and incubated for 72 hours in 5% CO2 at 37° C. incubator. To test mPDGF-BB on the toxic effect of the bispecific antibody of scFv-Cκ-scFv and the cotinine-duocarmycin complex, mPDGF-BB (2 nM) was added together with 50 μL of the bispecific antibody scFv-Cκ-scFv and the cotinine-duocarmycin complex. The mixed complexes were added to 50 μL of NIH3T3 cells.
The bispecific antibody of anti-HER2 x cotinine scFv-Cκ-scFv was used as a control. After 72 hours of incubation in the cells, 100 μL of Cell Titer-Glo reagents (Promega Corp., Madison, WI, USA) were added to all wells according to the manufacturer's instructions, and luminescence was measured in a luminometer (PerkinElmer, Waltham, MA, USA). The experiment was repeated 3 times. Relative viability was calculated with the following formula: [% viability=(luminescence of experimental well-luminescence of background well)/(luminescence of control-luminescence of background well)×100]. The wells containing only new medium were used as background wells.
To evaluate the toxicity of the complex of anti-mPDGFR-B x cotinine scFv-Cκ-scFv bispecific antibodies and cotinine duocarmycin (cot-duo, cot-duo-cot), the complexes were added to NIH3T3 cells in the presence/absence of mPDGF-BB. The ATP of the cells was measured for relative cell viability. The toxicity of the bispecific antibody of scFv-Cκ-scFv fusion antibody was shown by IC50 in Table 6 and FIG. 5.
It was carried out in the same manner as in Example 7, except that the bispecific antibody related with the anti-mPDGFR-β antibody and the bispecific antibody related with the anti-hPDGFR-β antibody prepared in Example 10 were used. FIG. 20a to FIG. 20b are graphs showing the difference in cytotoxic activity of PRb-CN01 and PRb-CN32 bispecific antibodies and cotinine-duocarmycin complexes in the cells expressing PDGFR-β. In FIG. 20b, an experiment was repeated in the presence of mPDGF-BB.

[3] = combination of Olaratumab and doxorubicin compared to doxorubicin alone; cited from earlier work
PDGFR-β = PDGFR-β (Homo sapiens, UniProt P09619); conditions: cited from earlier work
Chain of PDGFR-β (P09619 33-1106): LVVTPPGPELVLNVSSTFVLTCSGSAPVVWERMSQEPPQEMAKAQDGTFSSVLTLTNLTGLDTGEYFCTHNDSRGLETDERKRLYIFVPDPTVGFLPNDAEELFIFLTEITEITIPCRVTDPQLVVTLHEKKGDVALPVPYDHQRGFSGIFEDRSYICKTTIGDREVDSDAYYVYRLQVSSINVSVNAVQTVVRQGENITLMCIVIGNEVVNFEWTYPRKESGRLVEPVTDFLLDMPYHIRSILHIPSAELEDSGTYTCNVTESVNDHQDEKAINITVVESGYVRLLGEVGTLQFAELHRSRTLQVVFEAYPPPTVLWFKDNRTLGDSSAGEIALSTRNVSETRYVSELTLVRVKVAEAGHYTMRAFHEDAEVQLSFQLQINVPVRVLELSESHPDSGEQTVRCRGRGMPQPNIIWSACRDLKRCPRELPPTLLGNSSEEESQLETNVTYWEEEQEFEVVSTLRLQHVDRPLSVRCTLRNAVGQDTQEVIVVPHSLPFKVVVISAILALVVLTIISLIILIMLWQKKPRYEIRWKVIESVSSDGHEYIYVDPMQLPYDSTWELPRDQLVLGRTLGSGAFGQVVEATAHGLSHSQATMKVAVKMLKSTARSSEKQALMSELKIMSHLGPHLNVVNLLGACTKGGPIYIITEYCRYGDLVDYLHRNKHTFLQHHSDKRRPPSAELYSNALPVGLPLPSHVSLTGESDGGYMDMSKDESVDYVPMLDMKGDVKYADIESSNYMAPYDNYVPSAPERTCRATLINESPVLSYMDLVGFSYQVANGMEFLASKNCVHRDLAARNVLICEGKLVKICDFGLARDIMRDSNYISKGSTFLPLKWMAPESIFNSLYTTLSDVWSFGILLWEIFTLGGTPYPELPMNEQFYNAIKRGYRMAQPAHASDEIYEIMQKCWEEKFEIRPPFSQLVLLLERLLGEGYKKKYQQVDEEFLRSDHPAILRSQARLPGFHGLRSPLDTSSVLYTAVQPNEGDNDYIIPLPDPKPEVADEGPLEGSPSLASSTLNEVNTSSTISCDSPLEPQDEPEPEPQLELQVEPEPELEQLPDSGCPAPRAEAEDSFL

[4] = rats; cited from earlier work
[5] = persons treated with up to 1,800 mg for 4 consecutive days; cited from earlier work
NIH3T3 cells [6] = assay: Internalization analysis by confocal microscopy in NIH3T3 cells; assay type: cell-based, mouse; conditions: 10 μg/mL, 37° C., 30 minutes, FIG. 4c
Protocol: The bispecific antibody of scFv-Cκ-scFv fusion protein was analyzed with a confocal microscope for visualizing internalization. NIH3T3 cells were treated with the bispecific antibody of scFv-Cκ-scFv (10 μg/mL) diluted in DMEM containing 10% FBS, and internalized at 37° C. for 30 minutes. After washing the cells 3 times with cold PBS, acidic buffer (0.2 M acetic acid, 0.5 M sodium chloride) was treated at room temperature for 5 minutes to remove the antibody bound to the cell surface. Cells were washed twice with cold PBS, fixed with 4% paraformaldehyde for 10 minutes, and then subjected to immunofluorescence staining as previously described [J. M. Lim et al., J. Cell. Biol. 210 (2015) 23].
Briefly, to block antibodies having non-specific reaction, cells were incubated in PBS containing 5% horse serum and 0.1% Triton X-100 for 30 minutes, and 2 μg/mL FITC-anti human Cκ antibody (TB28-2, BD Biosciences) was added at room temperature for 30 minutes. To image the initial endosomes, the cells were washed 3 times with PBS, incubated with PBS containing 5% horse serum and 0.1% Triton X-100 for 30 minutes, and then incubated with ati-RabS antibody diluted to 1:200 (C8B1, Cell Signaling Technology, Danvers, MA, USA). Alexa Fluor 546 goat anti-rabbit IgG (A-11035, Invitrogen) was sequentially treated. Cells were treated with 0.2 μg/mL DAPI to detect DNA. Confocal microscopy images were obtained using a Zeiss LSM 880 microscope, and images were analyzed with Zen software (Carl Zeiss, Thornwood, NY, USA).
To measure the cellular internalization of the bispecific antibody of scFv-Cκ-scFv, anti-mPDGFR-β x cotinine scFv-Cκ-scFv fusion protein was incubated in NIH3T3 cells, and then treated with FITC-anti-human Cκ antibody and endosome-specific antibody. It was imaged using a confocal microscope. […] When the images were merged, the present inventors confirmed that the fluorescence of the three antibody clones and the endosome-specific antibody were co-localized.

mPDGFR-β and cotinine = target: T1, mPDGFR-β and cotinine; assay: Enzyme immunoassay, simultaneous binding to cotinine and mPDGFR-β; conditions: cotinine-BSA coated wells, then mPDGFR-β-Fc chimera; FIG. 3d
Protocol: In order to confirm whether the bispecific antibody has simultaneous binding ability to both cotinine and mPDGFR-β, anti-mPDGFR-β x cotinine scFv-Cκ-scFv fusion protein was reacted in wells coated with cotinine-BSA. Washing was performed for each process, and mPDGFR-β-Fc chimeric protein and HRP-anti human Fc antibody were sequentially incubated.

mPDGFR-β = target: T2, mPDGFR-β; assay: Competition enzyme immunoassay with mPDGF-BB; assay type: binding; conditions: mPDGF-BB 100 nM; FIG. 4a
Protocol: In order to confirm the competition between the bispecific antibody according to the present invention and mPDGF-BB, the microtiter plate was coated with mPDGFR-β-Fc chimera as mentioned above and then blocked. The microtiter plate was treated with various concentrations of the bispecific antibody (0.06 nM-1 μM) with or without addition of mPDGF-BB (100 nM), and then incubated at 37° C. for 2 hours. The washing, incubation, and detection were performed in the same manner as the enzyme immunoassay described above.
A competition enzyme immunoassay was developed to examine the effect of mPDGF-BB on the binding ability of anti-mPDGFR-β x cotinine scFv-Cκ-scFv fusion protein. The serially diluted bispecific antibodies (anti-mPDGFR-β scFv-Cκ-cotinine scFv) were incubated on wells coated with mPDGFR-β-Fc chimeric fusion protein with or without mPDGF-BB. HRP-anti-human Cκ antibody was incubated and then TMB was added. […] However, the binding ability of PRb-CN01 was not inhibited, so it confirmed that PRb-CN01 binds to mPDGFR-β in a noncompetitive manner to mPDGF-BB.

| Molecule | cellular internalization (NIH3T3 cells [6]) | simultaneous binding to mPDGFR-β and cotinine (mPDGFR-β and cotinine) | toxicity with the addition of mPDGF-BB (NIH3T3 cells [2]) | toxicity compared to control anti-HER2 x cotinine scFv-Cκ-scFv (NIH3T3 cells [2]) | binding ability to mPDGFR-β in the presence of mPDGF-BB (mPDGFR-β) | other results |
| --- | --- | --- | --- | --- | --- | --- |
| COC(=O)c1cc2c([nH]1)C(=O)C=C1N(C(=O)c3cc4cc(OC)c(OC)c(OC)c4[nH]3)C[C@H]3C[C@]123 [Free duocarmycin, duocarmycin, reference compound] | – | – | – | – | – | weight loss [1]: induced significantly weight loss; IC50 (NIH3T3 cells [2]; read-out: Cot-duo IC50 (nM), complex with cot-duo (DAR4), or conjugate/free drug alone, with mPDGF-BB (2 nM)): 23.8 nM; IC50 (NIH3T3 cells [2]; read-out: Cot-duo IC50 (nM), complex with cot-duo (DAR4), or conjugate/free drug alone, without mPDGF-BB): 9.7 nM; IC50 (NIH3T3 cells [2]; read-out: Cot-duo-cot IC50 (nM), complex with cot-duo-cot (DAR2), or conjugate/free drug alone, with mPDGF-BB (2 nM)): 60.3 nM; IC50 (NIH3T3 cells [2]; read-out: Cot-duo-cot IC50 (nM), complex with cot-duo-cot (DAR2), or conjugate/free drug alone, without mPDGF-BB): 35.7 nM |
| Olaratumab: recombinant human IgG1 antibody against PDGFR-α | – | – | – | – | – | overall mean survival [3]: significantly improved overall mean survival compared to doxorubicin alone; cross-reactivity with PDGFR-β (PDGFR-β): dose not cross-react with PDGFR-β |
| CN1C(=O)CC[C@H]1c1cccnc1 [Cotinine, cotinine] | – | – | – | – | – | LD50 [4]: 4 ± 0.1 g/kg; adverse side effects [5]: no adverse side effects were induced |
| B1 | Intracellular fluorescence was detected | simultaneously bound to mPDGFR-β and cotinine | decreased with the addition of mPDGF-BB | showed toxicity compared to the control antibody and the non-internalizing antibody (PRb-CC01), but did not show statistical significance | inhibited in the presence of mPDGF-BB | – |
| B2 | Intracellular fluorescence was detected | simultaneously bound to mPDGFR-β and cotinine | decreased with the addition of mPDGF-BB | showed toxicity compared to the control antibody and the non-internalizing antibody (PRb-CC01), but did not show statistical significance | inhibited in the presence of mPDGF-BB | – |
| B3 | not internalized | simultaneously bound to mPDGFR-β and cotinine | decreased with the addition of mPDGF-BB | – | inhibited in the presence of mPDGF-BB | – |
